Assay [1] deals with CH505 TF chimeric SOSIP.III trimer (CH505TFchim.6R.SOSIP.664v4.1) (HIV-1 (CH505 gp120 with BG505 gp41, chimera)). Put plainly: negative stain EM.
The target of assay [2] is BG505 SOSIP.664 gp140 trimer (HIV-1). The assay can be described thus: negative stain EM.
In assay [3] the target is CH505 transmitted/founder (TF) gp120 Env (HIV-1). The assay can be described thus: SPR, antibody captured, gp120 injected.
The target is the same in assay [4]. Put plainly: competition ELISA, competitor biotinylated CH241.
Assay [5] has the same target. The assay can be described thus: competition ELISA, competitor biotinylated CH240.
The target of assay [6] is B41 SOSIP.664 gp140 trimer (HIV-1). Put plainly: negative stain EM.
Assay [7] has as its target CH505 TF loop D mutant M8 Env (pseudovirus) (HIV-1). The assay can be described thus: cell-based or functional assay.
In assay [8] the target is CH505 TF loop D mutant M20 Env (pseudovirus) (HIV-1). The assay can be described thus: cell-based or functional assay.
Assay [9] concerns the target CH505 TF loop D mutant M9 Env (pseudovirus) (HIV-1). Put plainly: cell-based or functional assay.
The target of assay [10] is CH505 TF loop D mutant M7 Env (pseudovirus) (HIV-1). Put plainly: cell-based or functional assay.
Assay [11] has as its target CH505 transmitted/founder (TF) gp120 Env (HIV-1). The assay can be described thus: competition ELISA, blocking of sCD4 binding to CH505 TF gp120.
Assay [12] shares this target. Put plainly: competition ELISA, blocking of CH106 binding to CH505 TF gp120.

Some results are limits rather than exact numbers.

CH103 Fab: in [1], the binding ratio (CH103 to gp140) (CH103 per gp140) stood at 1 and the stoichiometry (Fabs per trimer) (Fabs per trimer) turned out to be 3. In assay [2], this substance gave a stoichiometry (Fabs per trimer) (Fabs per trimer) of 3.

With “CH103 lineage unmutated common ancestor (UCA) (antibody)”, in assay [3], the Kd came to 227 nM and the kon was 37000 M⁻¹ s⁻¹.

Take CH106 (antibody): the IC50 in [4] is 14.3 µg/mL; in assay [5] it was 2.3 µg/mL.

For CH235 Fab, the stoichiometry (Fabs per trimer) (Fabs per trimer) in [6] turned out to be 2; in assay [2], 1.

For the substance CH235.9 (antibody), the neutralization IC50, TZM-bl pseudovirus assay in [7] is 0.66 µg/mL.

In the case of CH235.9 Fab, the stoichiometry (Fabs per trimer) (Fabs per trimer) in assay [6] and in [2] was 3 in each case.

With CH235.9 N30T (antibody), the neutralization IC50, TZM-bl pseudovirus assay in [8] is above 44 µg/mL; in assay [9], above 44 µg/mL; in [7] it was 24.3 µg/mL; in [10], above 44 µg/mL. This substance gave a fold increase of the neutralization IC50 against CH235.9 in assay [7] of 37 fold.

For the substance CH235.12 Fab, the stoichiometry (Fabs per trimer) (Fabs per trimer) in assay [6] and in [2] was 3 in each case.

CH241 (antibody) came in with a concentration for half-maximal inhibition (IC50) in assay [11] of 1.5 µg/mL. Besides, in assay [12], the IC50 is 2.6 µg/mL. In assay [3], this substance gave a Kd of 0.7 nM and a koff of 0.00033 s⁻¹.

For the origin of these results see US10968255.
